{"source": "paper PMC12499391", "assay_in_all_cases": "ELISA; dose-response of S protein binding to ACE2 and C-type lectins; which partner was coated and how binding was detected is not given for this experiment", "key": {"[1]": {"biological_target": "Recombinant human L‐SIGN (human) (UniProt Q9H2X3)", "sequence (Q9H2X3 whole entry)": "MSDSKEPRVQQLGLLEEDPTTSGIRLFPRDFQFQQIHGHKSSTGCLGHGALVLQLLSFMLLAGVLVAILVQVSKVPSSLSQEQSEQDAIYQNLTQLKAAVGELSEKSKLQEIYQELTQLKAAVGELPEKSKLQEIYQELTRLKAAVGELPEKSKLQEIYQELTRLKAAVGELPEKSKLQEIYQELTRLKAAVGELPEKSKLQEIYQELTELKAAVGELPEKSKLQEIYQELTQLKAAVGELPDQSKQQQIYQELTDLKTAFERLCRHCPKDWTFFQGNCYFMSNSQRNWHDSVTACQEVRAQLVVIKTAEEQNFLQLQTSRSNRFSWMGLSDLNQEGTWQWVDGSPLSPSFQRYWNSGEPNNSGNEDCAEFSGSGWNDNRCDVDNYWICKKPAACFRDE"}, "[2]": {"biological_target": "Recombinant human CLEC2 (human) (UniProt Q9P126)", "sequence (Q9P126 whole entry)": "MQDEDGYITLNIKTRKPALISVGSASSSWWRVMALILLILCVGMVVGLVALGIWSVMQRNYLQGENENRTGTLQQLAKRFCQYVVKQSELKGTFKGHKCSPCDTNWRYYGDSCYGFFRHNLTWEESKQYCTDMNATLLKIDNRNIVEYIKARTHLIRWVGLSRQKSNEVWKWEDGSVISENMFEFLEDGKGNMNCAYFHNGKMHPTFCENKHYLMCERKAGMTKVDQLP"}, "[3]": {"biological_target": "Recombinant human DC‐SIGN (human) (UniProt Q9NNX6)", "sequence (Q9NNX6 whole entry)": "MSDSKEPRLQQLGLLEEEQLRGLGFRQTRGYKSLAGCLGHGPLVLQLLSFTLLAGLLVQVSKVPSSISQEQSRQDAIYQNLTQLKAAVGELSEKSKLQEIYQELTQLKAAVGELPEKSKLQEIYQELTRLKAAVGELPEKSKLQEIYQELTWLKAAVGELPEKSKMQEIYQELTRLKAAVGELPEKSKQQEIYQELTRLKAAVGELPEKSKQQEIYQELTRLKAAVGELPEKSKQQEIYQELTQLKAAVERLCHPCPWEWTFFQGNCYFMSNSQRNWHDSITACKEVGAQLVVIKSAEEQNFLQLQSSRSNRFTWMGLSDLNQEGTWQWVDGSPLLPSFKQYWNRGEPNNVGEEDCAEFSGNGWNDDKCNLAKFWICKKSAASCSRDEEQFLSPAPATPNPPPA"}, "[4]": {"biological_target": "Recombinant human CLEC10A (human) (UniProt Q8IUN9)", "sequence (Q8IUN9 whole entry)": "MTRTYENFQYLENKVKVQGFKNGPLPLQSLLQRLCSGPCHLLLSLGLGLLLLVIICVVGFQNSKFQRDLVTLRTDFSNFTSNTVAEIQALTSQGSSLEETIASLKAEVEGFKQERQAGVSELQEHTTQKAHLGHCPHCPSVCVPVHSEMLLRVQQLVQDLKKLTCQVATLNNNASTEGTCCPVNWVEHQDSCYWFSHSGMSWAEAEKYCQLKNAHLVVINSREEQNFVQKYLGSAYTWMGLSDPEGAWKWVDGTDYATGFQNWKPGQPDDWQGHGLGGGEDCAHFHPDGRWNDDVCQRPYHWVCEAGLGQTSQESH"}, "[5]": {"biological_target": "Recombinant human CLEC5A (human) (UniProt Q9NY25)", "sequence (Q9NY25 whole entry)": "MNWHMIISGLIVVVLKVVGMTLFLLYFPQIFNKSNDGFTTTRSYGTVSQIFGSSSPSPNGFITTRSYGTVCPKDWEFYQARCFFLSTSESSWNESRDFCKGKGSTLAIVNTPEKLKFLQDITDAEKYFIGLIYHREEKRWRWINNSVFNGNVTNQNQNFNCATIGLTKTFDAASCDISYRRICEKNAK"}}}
{"substance": "SARS‐CoV‐2 spike (S) protein (from UniProt P0DTC2 14-1213) (natural protein)", "values": [{"measurement": "EC50", "setting": "[1]", "value": 5.15, "unit": "nM"}, {"measurement": "EC50", "setting": "[2]", "value": 7.69, "unit": "nM"}, {"measurement": "EC50", "setting": "[3]", "value": 4.59, "unit": "nM"}, {"measurement": "EC50", "setting": "[4]", "value": 9.75, "unit": "nM"}, {"measurement": "EC50", "setting": "[5]", "value": 6.41, "unit": "nM"}]}
